The target in test [1] is human tonsillar B cells (CD20+ / CD19+, surface Ig). Description: flow cytometry, dual staining with biotinylated bacterial antigen. On the technique in general: A flow cytometer gives signals particle by particle.
Test [2] shares this target. Description: flow cytometry, biotinylated mod-SpA on tonsillar B cells; the pair that the inhibitors of Table 5 block.

Consider “staphylococcal protein A (SpA), purified recombinant form (from UniProt P38507)”, for which the SpA Binding (share of CD20 tonsillar cells) in test [1] was 29%. In test [1], Protein G (from UniProt P19909) came in with a Protein G Binding (share of CD20 tonsillar cells) of 9%. Turning to “SpA modified by hyperiodination to destroy IgG Fc binding activity (mod-SpA) (from UniProt P38507)”, in test [2], the Binding (proportion of the total B cells bound by mod-SpA) came to 15.
